Results from patent US6537965B1, “Amino-terminal modified parathyroid hormone (PTH) analogs” (The General Hospital Corporation, priority 1998, dated 2003).
“Also recorded” adds a separate entry of the source. Ends that are not written are not given here.

Key:
hPTH-1 receptors [1] = target: T1, hPTH-1 receptors (Homo sapiens, UniProt Q03431); experiment: cAMP accumulation (adenylyl cyclase activation) in HKRK C53 cells; assay type: cell-based; design: expressed in transfected cells; details: HKRK C53 cells, about 150,000 hPTH-1 receptors per cell; 10^-9M and 10^-7M peptide (FIG. 1)
T1 sequence (Q03431 27-593): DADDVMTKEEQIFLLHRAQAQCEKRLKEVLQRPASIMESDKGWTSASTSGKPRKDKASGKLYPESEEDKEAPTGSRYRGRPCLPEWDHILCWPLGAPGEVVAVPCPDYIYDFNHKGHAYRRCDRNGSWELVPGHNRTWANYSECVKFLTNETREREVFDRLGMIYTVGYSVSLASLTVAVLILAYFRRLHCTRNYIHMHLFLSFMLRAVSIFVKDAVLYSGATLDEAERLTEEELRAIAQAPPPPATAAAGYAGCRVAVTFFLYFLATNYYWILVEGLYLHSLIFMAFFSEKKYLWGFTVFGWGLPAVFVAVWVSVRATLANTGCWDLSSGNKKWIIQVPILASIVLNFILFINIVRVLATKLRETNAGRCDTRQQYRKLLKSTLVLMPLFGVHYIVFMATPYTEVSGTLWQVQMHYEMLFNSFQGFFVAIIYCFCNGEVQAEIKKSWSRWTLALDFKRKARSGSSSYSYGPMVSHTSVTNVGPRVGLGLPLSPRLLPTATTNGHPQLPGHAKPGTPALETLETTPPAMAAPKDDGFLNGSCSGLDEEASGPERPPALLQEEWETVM
Description: The following cell lines were used in these studies. HKRK C53 subclones of LLC-PKI porcine renal epithelial cells which stably express human PTH-1 receptors (150,000 receptors/cell). SaOS-2 cells are transformed human osteosarcoma cells which express relatively few (10,000-20,000 per cell) human PTH-1 receptors. HPR2-7 cells are subclones of LLC-PK1 which express approximately 250,000 recombinant human PTH-2 receptors per cell. […] The HPR2-27 and HPR2-22 cell lines were created in the same fashion as the HKRK cells but employing instead type 2 PTH receptor cDNA using the transfection technique of (Bringhurst, F. R., et al., Endocrinology 132(5):2090-2098 (1993); Guo, J., et al., Endocrinology 136(9):3884-3891 (1995)).
(§1) Intracellular cAMP accumulation, PLC activation and PTHR binding affinity were measured as previously reported (Bringhurst, F. R., et al., Endocrinology 132(5):2090-2098 (1993); Guo, J., et al., Endocrinology 136(9):3884-3891 (1995)). Intracellular cAMP accumulation was measured in extracts of cells that were exposed to human PTH peptides in the presence of isobutylmethyxanthine (IBMX, 1 mM) at 37° C. for 15 min. After terminating the reactions by aspiration and freezing in liquid nitrogen, cell monolayers were extracted with 50 mM HCl and cAMP was measured using a radioimmunoassay kit (Dupont-New England Nuclear, Boston, Mass.).

hPTH-1 receptors [2] = target: T1, hPTH-1 receptors; experiment: PLC activation in HEK-293 cells transiently transfected with human PTHR cDNA; assay type: cell-based; design: expressed in transfected cells; host or cells: HEK-293 human embryonic kidney cells, transient transfection with Lipofectamine; details: HEK-293 cells transiently transfected with human PTHR cDNA (data not shown)
Method: (§2) PLC was activated by PTH agonists in the presence of 30 mM LiCl at 37° C. for 30 min after 16 hr of labeling with [^3H]myo-inositol (3uCi/ml) in serum-free medium containing 0.1% bovine serum albumin. The reactions were stopped by rapid aspiration and addition of cold 5% TCA. Water-soluble radiolabeled inositol trisphosphate (IP3) was isolated after ether extraction by ion-exchange chromatography (Guo, J., et al., Endocrinology 136(9):3884-3891 (1995)). In experiments involving HEK 293 cells, cells previously transfected with human PTHR cDNA (in the pcDNA1 expression vector HKRK) using Lipofectamine (Gibco BRL) were labeled with [^3H]myo-inositol and assayed as described above, except that total water-soluble [^3H]inositol polyphosphates were collected as a single fraction from the ion-exchange columns.

hPTH-1 receptors [3] = target: T1, hPTH-1 receptors; experiment: AC activation in HKRK B7 cells; assay type: cell-based; design: expressed in transfected cells; details: HKRK B7 cells (large number of human PTH-1 receptors)
Description: (§3) The following cell lines were used in these studies. HKRK C53 subclones of LLC-PKI porcine renal epithelial cells which stably express human PTH-1 receptors (150,000 receptors/cell). SaOS-2 cells are transformed human osteosarcoma cells which express relatively few (10,000-20,000 per cell) human PTH-1 receptors. HPR2-7 cells are subclones of LLC-PK1 which express approximately 250,000 recombinant human PTH-2 receptors per cell. HKRK-B7 cells are subclones of LLC-PK which stably express approximately 1 million hPTH-1 receptors per cell. HPR2-22 cells are subclones of LLC-PK1 which express 1.5 million recombinant hPTH-2 receptors per cell. The HPR2-27 and HPR2-22 cell lines were created in the same fashion as the HKRK cells but employing instead type 2 PTH receptor cDNA using the transfection technique of (Bringhurst, F. R., et al., Endocrinology 132(5):2090-2098 (1993); Guo, J., et al., Endocrinology 136(9):3884-3891 (1995)).
as §1

hPTH-1 receptors [4] = target: T1, hPTH-1 receptors; experiment: phospholipase C (PLC) activity in HKRK-B7 cells; assay type: cell-based; design: expressed in transfected cells; details: about 1 million hPTH-1 receptors per cell, 1000 nM (FIG. 4)
Description: as §3, §2

hPTH-1 receptors [5] = target: T1, hPTH-1 receptors; experiment: cAMP measurements in SaOS-2 cells; assay type: cell-based; design: expressed in transfected cells; details: SaOS-2 cells, 10,000-20,000 human PTH-1 receptors per cell; up to 1 uM (FIG. 2)
Description: as §3, §1

hPTH-2 receptors = target: T2, hPTH-2 receptors (Homo sapiens, UniProt P49190); experiment: phospholipase C activation in HPR2-22 cells; assay type: cell-based; details: 1.5 million hPTH-2 receptors per cell, 1,000 nM (FIG. 5)
T2 construct: expressed in transfected cells
T2 sequence (P49190 25-550): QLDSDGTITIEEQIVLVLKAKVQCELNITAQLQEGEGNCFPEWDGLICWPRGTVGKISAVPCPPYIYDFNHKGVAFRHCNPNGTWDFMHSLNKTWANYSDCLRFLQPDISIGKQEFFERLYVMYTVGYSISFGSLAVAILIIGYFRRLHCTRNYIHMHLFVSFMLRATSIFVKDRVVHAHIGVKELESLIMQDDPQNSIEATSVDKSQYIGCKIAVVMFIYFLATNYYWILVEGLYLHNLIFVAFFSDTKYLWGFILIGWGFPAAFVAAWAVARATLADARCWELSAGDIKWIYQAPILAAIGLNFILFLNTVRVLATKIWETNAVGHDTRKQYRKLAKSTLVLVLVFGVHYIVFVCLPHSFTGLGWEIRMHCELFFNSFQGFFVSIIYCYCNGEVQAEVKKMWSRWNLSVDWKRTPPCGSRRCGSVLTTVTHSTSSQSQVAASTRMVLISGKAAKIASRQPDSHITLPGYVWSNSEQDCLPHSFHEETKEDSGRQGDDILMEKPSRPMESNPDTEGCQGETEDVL
Description: as §3, §2

hPTH-1 receptors [6] = target: T1, hPTH-1 receptors; experiment: radioligand competition binding to HKRK B28 cells; design: expressed in transfected cells; details: HKRK B28 cells, 280,000 human PTH-1 receptors/cell (FIG. 6)
Method: Radioligand competition binding assays were performed at 2-8° C. for 6 hr using ^125I-[Nle^8,21]rat PTH-(1-34) (100,000 cpm/well) in the presence or absence of non-radioactive hPTH-(1-34) analogs. Cell layers were washed three times before solubilization for determination of cell-associated radioactivity.

rat PTHRs = target: T3, rat PTHRs (Rattus norvegicus, UniProt P25961); experiment: PLC activation in COS-7 cells expressing rat PTHRs; assay type: cell-based; details: up to 1000 nM
T3 construct: expressed in transfected cells; host or cells: COS-7 cells
T3 sequence (P25961 27-591): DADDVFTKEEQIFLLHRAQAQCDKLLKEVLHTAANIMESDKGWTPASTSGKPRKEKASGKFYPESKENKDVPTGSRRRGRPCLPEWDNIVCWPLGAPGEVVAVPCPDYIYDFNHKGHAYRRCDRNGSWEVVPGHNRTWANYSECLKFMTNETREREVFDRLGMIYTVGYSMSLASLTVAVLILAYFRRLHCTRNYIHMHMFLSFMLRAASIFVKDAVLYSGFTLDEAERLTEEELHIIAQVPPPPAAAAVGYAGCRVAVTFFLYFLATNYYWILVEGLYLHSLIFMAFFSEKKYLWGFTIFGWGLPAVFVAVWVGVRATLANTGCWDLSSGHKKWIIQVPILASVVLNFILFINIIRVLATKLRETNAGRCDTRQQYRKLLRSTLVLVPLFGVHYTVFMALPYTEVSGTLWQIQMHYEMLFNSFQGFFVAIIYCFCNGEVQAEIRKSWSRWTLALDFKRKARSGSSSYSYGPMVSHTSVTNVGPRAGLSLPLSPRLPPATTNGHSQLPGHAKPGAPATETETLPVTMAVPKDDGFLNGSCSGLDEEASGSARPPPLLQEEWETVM
Method: (§4) All cells were maintained under 5% CO2 in air in Dulbecco's modified […] containing 7% fetal bovine serum (FBS) and 1% penicillin/streptomycin (GIBCO-BRL, Grand Island, N.Y.). Cells were seeded into 24-well plates two days before assay at a suitable cell density (approximately 2-2.5×10^5 cells/well). DNA transfections in COS/HEK cells were performed 24 hr after plating and inositol radiolabel was added 24 hr thereafter (see below). Cell transfections were performed as previously described (Gardella, T. J., et al., Endocrinology 132(5):2024-2030 (1993)).
as §2

human PTHRs = target: T4, human PTHRs (Homo sapiens, UniProt Q03431); experiment: PLC activation in COS-7 cells expressing human PTHRs; assay type: cell-based; details: up to 1000 nM
T4 sequence (Q03431 27-593): T1 sequence (Q03431 27-593)
Method: as §4, §2

Row | Substance | cyclic AMP accumulation, efficacy compared with native hPTH(1-34)NH2 (hPTH-1 receptors [1]) | activation of PLC (hPTH-1 receptors [2]) | activation of AC compared with hPTH-(1-34) (hPTH-1 receptors [3]) | activation of PLC (hPTH-1 receptors [4]) | activation of PLC (hPTH-1 receptors [4]; listed as Human PTH(2-34)) | cyclase (cAMP) activity compared with control hPTH(1-34) (hPTH-1 receptors [5]) | activation of phospholipase C (hPTH-2 receptors) | competitive displacement of 125I-[Nle8,21]rPTH(1-34) radioligand binding (hPTH-1 receptors [6]) | activation of PLC (rat PTHRs) | activation of PLC (human PTHRs)
1 | hPTH(2-34): N-truncated human PTH peptide, residues 2-34 (VSEIQLMHNLGKHLNSMERVEWLRKKLQDVHNF) | similarly reduced activity | inability | comparable in magnitude and sensitivity to that of hPTH-(1-34); also recorded: approximately equipotent | did not elicit PLC activity | inactive | very weak agonists | only a partial agonist | binds as well | – | –
2 | hPTH-(3-34): N-truncated human PTH peptide, residues 3-34 (SEIQLMHNLGKHLNSMERVEWLRKKLQDVHNF-NH2; UniProt P01270 34-65, looked up, fragment) | – | – | – | did not activate PLC | – | – | – | – | did not activate PLC | did not activate PLC
